This passage reports stoichiometry N results from PMC4673316.

This experiment deals with ClpP1/P2 heptameric ring 3ClpP1 + 4ClpP2 (Synechococcus elongatus) (UniProt P54415). Briefly: native MS; nano-ESI Q-ToF, 200 mM ammonium acetate with 2 mM TEA (weakly denaturing).

As a reminder, the stoichiometry N is a count of units in the complex or per binding partner. Consider “ClpP1/P2 heptameric ring 3ClpP1 + 4ClpP2 (from UniProt P54415 1-197; O34125 1-240) (complex)”, for which the stoichiometry N came out at 2.
